Measurements as given in US20030180306A1 (Pfizer, published 2003).

Target: T1, recombinant purified GDF-8 (UniProt O14793 267-375, limits assumed)
T1 sequence (looked up): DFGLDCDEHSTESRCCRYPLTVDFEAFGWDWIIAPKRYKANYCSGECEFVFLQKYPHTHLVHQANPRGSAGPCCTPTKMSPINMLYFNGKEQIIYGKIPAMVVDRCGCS
Assay: cell-based or functional assay

B1: mouse GASP1 cloned with a C-terminal V5-His tag (GASP1-V5-His) (other, not shown: small tags and cut ends)
chain: LPPIRYSHAGICPNDMNPNLWVDAQSTCKRECETDQECETYEKCCPNVCGTKSCVAARYMDVKGKKGPVGMPKEATCDHFMCLQQGSECDIWDGQPVCKCKDRCEKEPSFTCASDGLTYYNRCFMDAEACSKGITLSVVTCRYHFTWPNTSPPPPETTVHPTTASPETLGLDMAAPALLNHPVHQSVTVGETVSFLCDVVGRPRPELTWEKQLEDRENVVMRPNHVRGNVVVTNIAQLVIYNVQPQDAGIYTCTARNVAGVLRADFPLSVVRGGQARATSESSLNGTAFPATECLKPPDSEDCGEEQTRWHFDAQANNCLTFTFGHCHHNLNHFETYEACMLACMSGPLATCSLPALQGPCKAYVPRWAYNSQTGLCQSFVYGGCEGNGNNFESREACEESCPFPRGNQHCRACKPRQKLVTSFCRSDFVILGRVSELTEEQDSGRALVTVDEVLKDEKMGLKFLGREPLEVTLLHVDWTCPCPNVTVGETPLIIMGEVDGGMAMLRPDSFVGASSTRRVRKLREVMYKKTCDVLKDFLGLQ
For B1, which “IC50 for inhibition of GDF-8 (20 ng/ml) in the (CAGA)12 luciferase reporter gene assay, RD cells, purified GASP1-V5-His” value is on record?
The value was roughly 3 nM.
